Results reported in publication PMC7919409, “Crystal structures of adenylylated and unadenylylated PII protein GlnK from Corynebacterium glutamicum” (Acta Crystallographica. Section D, Structural Biology, 2021).

Key:
[1] = target: the molecule itself; test: crystal structure; unGlnK, 2.2 Å, space group P4(3)2(1)2, one trimer per asymmetric unit; sitting drop, 292 K, 2.0 M ammonium sulfate, 5%(v/v) 2-propanol
[2] = target: the molecule itself; test: crystal structure; adGlnK, 1.8 Å, space group P3(2), six chains per asymmetric unit; hanging drop, 292 K, MgCl2, CaCl2, MOPS/HEPES pH 7.1, MPD, PEG 1000, PEG 3350

Protein | stoichiometry N [1] | stoichiometry N [2]
unmodified unadenylylated GlnK from Corynebacterium glutamicum (natural protein, C. glutamicum, not part of GlnK; PII protein GlnK, Corynebacterium glutamicum, UniProt Q79VF2; each subunit spans 112 residues; The His tag was cut off with thrombin; Homotrimer; also called unGlnK; UnGlnK; source: E. coli BL21(DE3), purified (HisTrap FF, thrombin cleavage of the His tag, Superdex 75 size-exclusion chromatography); not shown: His tag, N-terminal, cleaved) SLHACRMKLITAIVKPFTLTDIKDALEQAGVQGMTVTETQGFGQQKGHTEVYRGAEYAVDFVPKVKIEVIISDAQAEEVINIIVETARTGKVGDGKVWMTNIEELVRVRTGERGEAAL | 3 | 
adenylylated GlnK from Corynebacterium glutamicum (natural protein, C. glutamicum, adenylylated Tyr51 (AMP moiety covalently linked to the hydroxyl group of Tyr51); almost fully adenylylated by mass spectrometry, PII protein GlnK, Corynebacterium glutamicum, UniProt Q79VF2; untagged (stop codon inserted before the Xa-Strep stretch of the vector); Homotrimer; also called adGlnK; AdGlnK) MKLITAIVKPFTLTDIKDALEQAGVQGMTVTETQGFGQQKGHTEVYRGAEYAVDFVPKVKIEVIISDAQAEEVINIIVETARTGKVGDGKVWMTNIEELVRVRTGERGEAAL |  | 3
